Results published in patent US20140328849A1 (Genentech, published 2014).
Changes are numbered by the printed parent chain. Blank lines part the entries; values can stand above or below the binder they belong to.

How the values were obtained:
[1] = biological target: T1, rhesus monkey CRTh2 (rhesus monkey, UniProt Q9Y5Y4 1-395 (human entry)); assay: flow cytometry on 293 cells expressing rhesus CRTh2
T1 construct: also called rhesus CRTh2
T1 chain: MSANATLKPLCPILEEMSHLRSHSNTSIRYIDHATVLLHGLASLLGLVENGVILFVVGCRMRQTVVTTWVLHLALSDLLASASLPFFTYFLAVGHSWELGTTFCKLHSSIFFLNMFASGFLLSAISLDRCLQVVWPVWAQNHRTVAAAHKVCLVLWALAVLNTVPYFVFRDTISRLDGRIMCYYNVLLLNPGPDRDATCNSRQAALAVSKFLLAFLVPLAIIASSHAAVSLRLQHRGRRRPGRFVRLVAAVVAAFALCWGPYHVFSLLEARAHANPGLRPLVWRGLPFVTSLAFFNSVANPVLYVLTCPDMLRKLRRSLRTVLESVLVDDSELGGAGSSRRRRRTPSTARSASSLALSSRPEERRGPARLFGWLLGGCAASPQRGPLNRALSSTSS

[2] = biological target: T2, cynomolgus monkey CRTh2 (cynomolgus monkey, UniProt Q9Y5Y4 1-395 (human entry)); assay: flow cytometry on 300.19 cells expressing amino-terminal Flag-tagged cynomolgus CRTh2 [Cont.]
T2 construct: also called cyno CRTh2; cynomologous CRTh2
T2 chain: T1 chain with P193S, P276R, R360H

[3] = biological target: T1, rhesus monkey CRTh2; assay: flow cytometry on 300.19 cells expressing amino-terminal Flag-tagged rhesus CRTh2

binding result [1]: no binding (tested: 20 ug/ml)
B1: mouse anti-human CRTh2 monoclonal antibody 19A2 (antibody, mouse IgG2a, V domains shown)
VH: EVKLVESGGGLVQPGGSLKLSCAASGFTFSSYSMSWVRQTPEKRLEWVAYISNGGSTTYYPGTVEGRFTISRDNAKNTLFLQMSSLRSKDTAMYYCARHRTNWDFDYWGQGTTLTVSS
VL: DIQMTQSPASLSVSVGETVTITCRASENIYSNLAWYQQKQGKSPQLVVYAATQLADGVPSRFSGSGSGTQYSLKINSLQSEDFGSYYCQHFWITPWTFGGGTKLEIK
notes: also called mu19A2; Mu19A2

binding result [2]: no binding (tested: 1 ug/ml)
binding result [3]: no binding (tested: 5 ug/ml)
B2: mouse anti-human CRTh2 monoclonal antibody 8B1 (antibody, V domains shown)
VH: QVQLQQSGTGLVRPGTSVRVSCKASGYAFITYLIEWIKQRPGQGLEWIGVIHPGSGNSHYNEKFKGKATLTADTSSSTAYMQLSSLTSGDSAVYFCARSGSSSFDYYAMDFWGQGTSVTVSS
VL: DIQMTQSPSSLSASLGERVSLTCRASQEISGYFSWLQQKPDGTIKRLIYAASTLDSGVPKRFSGSRSGSDYSLTISSLESEDFADYYCLQYANYPYTFGGGTKLEIK
notes: also called mu8B1; Mab 8B1
